Data published in patent US20230383001A1 (Kyowa Kirin, published 2023).

Target: T1, OX40 on OX40-positive helper T-cells in blood of patients (human, UniProt P43489 29-277)
T1 construct: whole, on cells; The cells came from trial patients; also called CD134; human OX40
T1 sequence (looked up): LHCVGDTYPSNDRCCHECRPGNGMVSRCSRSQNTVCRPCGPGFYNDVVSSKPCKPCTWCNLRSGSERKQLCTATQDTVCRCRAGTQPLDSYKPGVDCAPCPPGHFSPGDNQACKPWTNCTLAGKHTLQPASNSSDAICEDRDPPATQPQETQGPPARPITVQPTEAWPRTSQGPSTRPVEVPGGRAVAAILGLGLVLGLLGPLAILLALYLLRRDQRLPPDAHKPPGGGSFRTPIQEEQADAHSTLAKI
Assay: flow cytometry of patients' blood after dosing: total versus unoccupied OX40-positive helper T cells (receptor occupancy, ex vivo)
Experimental: Blood samples for flow cytometry are collected from the subjects who voluntarily agree. When the timing overlaps the study drug administration, the sample is taken before the study drug administration. The OX40-positive cells and the CLA-positive memory T cells in the blood of the patients are counted. When OX40-positive cells in the blood are analyzed, OX40-positive cells in helper T cells are analyzed by using helper T cell markers. Therefore, OX40-positive cells in the blood herein means OX40 positive helper T cells in the blood.

B1: KHK4083 (antibody, human IgG1, kappa, V domains shown)
VH: QITLKESGPTLVKPKQTLTLTCTFSGFSLSTSGMGVGWIRQPPGKALEWLAVIYWDDHQLYSPSLKSRLTITKDTSKNQVVLTMTNMDPVDTATYYCAHRRGAFQHWGQGTLVTVSS
VL: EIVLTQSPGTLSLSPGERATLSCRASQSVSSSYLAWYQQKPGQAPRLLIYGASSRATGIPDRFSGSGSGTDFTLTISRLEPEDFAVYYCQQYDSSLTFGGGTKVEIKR
notes: also called anti-OX40 antibody
B1: binds.
